Experimental data taken from patent US20240002516A1 (4B TECHNOLOGIES SUZHOU, published 2024).
Where two headings read alike, the source gives them in different places.

Key:
[1] = molecular target: T1, human TrkA on CellSensor TrkA-NFAT-bla CHO-K1 cells (human, UniProt P04629 33-796); experiment: FACS on CellSensor TrkA-NFAT-bla CHO-K1 cells (human TrkA), APC goat anti-mouse IgG; y axis without label
T1 construct: whole, on cells; Bought cell line; also called cells overexpressing human TrkA
Description: (§1) The ELISA-positive antibody producing clones were further verified by fluorescence-activated cell sorting (FACS) using a conventional method. Briefly, CellSensor® TrkA-NFAT-bla CHO-K1 cells (cells overexpressing human TrkA) were stained with anti-TrkA antibody in U-bottom 96-well plates. The cells were resuspended to 2×10⁶ cells/ml in ice cold PBS. The diluted solutions of primary and secondary antibodies were prepared, and 100 μl of the diluted primary antibody was added in each well, and incubated for 1 hours at 4° C. in the dark. The cells were washed for 2 times by centrifugation at 2500 rpm for 3 min and resuspended in ice cold PBS. The APC Goat anti-Mouse IgG was diluted in cold PBS at the […] and then the cells were resuspended in 100 μl of this solution. The cells were washed for 2 times by centrifugation at 2500 rpm for 3 min and resuspended in 100 μl ice cold PBS. The cell suspension was stored immediately at 4° C. in the dark. The cells were analyzed on the flow cytometer as soon as possible.

[2] = molecular target: T1, human TrkA on CellSensor TrkA-NFAT-bla …; experiment: cell-based or functional assay
[3] = molecular target: T2, extracellular domain (ECD) of human TrkA protein, N-terminal flag tag and C-terminal His tag (PHA) (human, UniProt P04629 33-423); experiment: indirect ELISA on coated PHA (human TrkA ECD, 1 ug/mL), anti-mouse IgG-HRP, OD450
T2 construct: Made in 293-F cells and purified by IMAC; also called TrkA ECD protein; TrkA (ECD); not shown: flag tag at the N-terminus (after the signal peptide); His tag at the C-terminus
Description: Hybridoma supernatants were initially screened with human TrkA by indirect ELISA. Briefly, purified PHA was diluted to a final concentration of 1 μg/mL in PBS buffer. 100 μL of the diluted antigen was added to each well of a 96-well plate, and incubated at 4° C. overnight. The plates were washed with PBST (PBS comprising 0.05% Tween-20, pH 7.4) for three times, then 200 μl/well of 2% bovine serum albumin (BSA) diluted in PBST was added and incubated at room temperature for 2 hours for blocking. The blocking solution was removed, and the plate was washed 3 times with 300 μl PBST. The diluted solutions of primary and secondary antibodies, along with substrate solution was prepared. 100 μl of diluted primary antibody was pipetted in each well and was incubated for 1 hour at room temperature. The content in the wells was removed and washed for 3 times with 300 μl PBST buffer. PBS was removed from the plates. 100 μl of diluted Peroxidase-AffiniPure Goat Anti-Mouse IgG was added in each well and incubated for 1 hour at 37° C. The content in the wells was removed and the wells were washed for 3 times with 300 μl PBST. 100 μl of TMB substrate solution was added to the wells. After sufficient color development, 100 μl of stop solution was added to the wells to terminate the reaction. Read the absorbance (OD: 450) of each well with a microplate reader and the data were analyzed.

[4] = molecular target: T1, human TrkA on CellSensor TrkA-NFAT-bla …; experiment: cell-based or functional assay; remark: listed apart in the source
[5] = molecular target: T1, human TrkA on CellSensor TrkA-NFAT-bla …; experiment: FACS on CellSensor TrkA-NFAT-bla CHO-K1 cells (human TrkA), APC goat anti-mouse IgG
Description: as §1

[6] = molecular target: T1, human TrkA on CellSensor TrkA-NFAT-bla …; experiment: cell-based or functional assay; remark: listed apart in the source
[7] = molecular target: T2, extracellular domain (ECD) of human …; experiment: SPR (BIAcore T200), antibody on protein G chip, PHA 0.625-20 nM injected
Description: The binding kinetics and affinities of the humanized antibodies were determined using a BIAcoreT200™ SPR system. Approximately 30 RU of the humanized antibody was immobilized on a protein G sensor chip and serial 2-fold dilutions of the PHA (0.625-20 nM) in 1×HBS-EP+ buffer were injected over the antibody-bound surface at a flow rate of 30 μl/min.

[8] = molecular target: T2, extracellular domain (ECD) of human …; experiment: affinity after affinity maturation; method not stated in Example 5
[9] = molecular target: T2, extracellular domain (ECD) of human …; experiment: BLI (Octet Red384), as in Example 4
Description: The bio-layer interferometry (BLI) method was used to determine the affinities of the antibodies, employing Octet Red384. Briefly, anti-human Fc-coated biosensor AHQ tips (ForteBio) were put into PBS with 0.1% w/v bovine serum albumin and 0.05% Tween-20 for a minimum of 10 min in the pre-wetting plate. The purified antibodies (100 nM in PBS with 0.1% bovine serum albumin and 0.05% Tween-20 (assay buffer)) were captured on AHQ biosensors (ForteBio) at a level of about 1 nm. The loaded biosensors were washed with an assay buffer to remove any unbound protein. Then, the association rates, dissociation rates and response were measured, using an antigen of 100 nM (in PBS with 0.1% bovine serum albumin and 0.05% Tween-20).
Two rounds of humanizations were further performed. […] In the second round, many other variants were further constructed (including several mutations in the CDR sequences). Quickchange based site-directed mutagenesis or overlap PCR were performed to create expression plasmid of new versions of 2nd round humanized antibodies. All recombinant antibodies were expressed and purified as described in Example 1, then measured antigen binding affinity using BLI technology with the Octet Red384 instrument as mentioned above. To compare the functional activity of humanized antibodies with chimeric antibodies, NFAT assay was also performed.

[10] = molecular target: T1, human TrkA on CellSensor TrkA-NFAT-bla …; experiment: cell-based or functional assay; remark: listed apart in the source

T2 sequence (P04629 33-423): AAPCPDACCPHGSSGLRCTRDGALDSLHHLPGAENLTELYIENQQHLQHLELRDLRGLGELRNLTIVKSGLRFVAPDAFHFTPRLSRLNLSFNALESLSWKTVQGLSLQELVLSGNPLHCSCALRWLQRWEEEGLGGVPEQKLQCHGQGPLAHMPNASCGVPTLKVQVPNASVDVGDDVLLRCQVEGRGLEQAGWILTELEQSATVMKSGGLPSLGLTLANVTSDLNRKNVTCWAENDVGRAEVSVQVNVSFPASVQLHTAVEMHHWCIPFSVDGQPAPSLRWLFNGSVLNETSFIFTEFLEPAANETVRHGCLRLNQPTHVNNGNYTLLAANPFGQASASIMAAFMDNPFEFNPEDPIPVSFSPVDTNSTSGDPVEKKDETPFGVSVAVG
T1 sequence (P04629 33-796 limits assumed, form in doubt): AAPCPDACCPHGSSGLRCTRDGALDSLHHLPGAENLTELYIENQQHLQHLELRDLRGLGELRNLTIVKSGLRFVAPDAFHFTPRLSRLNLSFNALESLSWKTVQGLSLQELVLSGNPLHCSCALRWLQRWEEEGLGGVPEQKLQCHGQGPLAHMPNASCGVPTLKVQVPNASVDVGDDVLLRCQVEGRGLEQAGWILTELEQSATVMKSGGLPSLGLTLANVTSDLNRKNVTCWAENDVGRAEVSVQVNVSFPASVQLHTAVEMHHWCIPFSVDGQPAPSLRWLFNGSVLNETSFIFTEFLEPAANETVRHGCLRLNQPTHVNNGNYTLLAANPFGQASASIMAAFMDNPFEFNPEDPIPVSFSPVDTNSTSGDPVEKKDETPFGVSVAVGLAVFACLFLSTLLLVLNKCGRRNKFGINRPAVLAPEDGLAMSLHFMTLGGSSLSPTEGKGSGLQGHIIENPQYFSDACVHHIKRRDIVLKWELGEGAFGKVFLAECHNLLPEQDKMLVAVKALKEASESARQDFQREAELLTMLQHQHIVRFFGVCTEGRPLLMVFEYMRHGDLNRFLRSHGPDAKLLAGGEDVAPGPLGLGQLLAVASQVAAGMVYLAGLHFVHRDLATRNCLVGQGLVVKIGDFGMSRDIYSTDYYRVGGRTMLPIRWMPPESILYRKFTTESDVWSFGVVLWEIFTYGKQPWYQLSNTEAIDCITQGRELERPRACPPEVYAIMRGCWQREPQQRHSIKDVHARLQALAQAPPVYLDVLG

B1: muPHD49 (antibody, V domains shown)
VH: QVQLQQSGAELARPGASVKLSCKASGYTFSSYWMQWVKQRPGQGLEWIGAIYPGDDDTIYTQKFKGKATLTADKSSSTAYMQLSSLASEDSAVYYCARNYDYQAWFAYWGQGTLVTVSA
VL: QIVLTQSPALMSASPGEKVTMTCSASSSVSYMYWYQQKPRSSPKPWIYLTSNLASGVPARFSGSGSGTSYSLTISSMEAEDAATYYCQQWSSNPLTFGAGTKLELK
notes: Mouse hybridoma monoclonal antibody; also called muPHID49
- Top [1]: 173000
- Top; inhibition of NGF-induced TrkA activation in TrkA-NFAT-bla CHO-K1 reporter cells [2]: 0.796 Response Ratio
- EC50 [3]: 1.07 nM
- Top [3]: 1.94 OD450
- IC50 in NFAT assay [4]: 0.404 nM
- EC50 [5]: 0.473 µg/mL

B2: muPHD50 (antibody, V domains shown)
VH: EVQLQQSGTVLARPGASVKMSCKASGYIFTSYWMHWVKQRPGQGLEWIGAIYPGDSDTNYNQKFKGKAKLTAVTSASTAYMELSSLTNEDSAVYYCTRYGNYAGYYHMDYWGQGTSVTVSS
VL: QIVLTQSPALMSASPGEKVTMTCSASSSVSYIYWYQQKPRSSPKPWIYLTSNLASGVPARFSGSGSGTSYSLTISSMEAEDAATYYCQQWSSNPLTFGAGTKLELK
notes: Mouse hybridoma monoclonal antibody; also called muPHID50
- Top [1]: 268000
- EC50 [3]: 0.428 nM
- Top [3]: 1.65 OD450
- EC50 [5]: 0.326 µg/mL

B3: PHD48 (antibody, V domains shown)
VH: QVQLVQSGAEVKKPGASVKVSCKASGYTFTTYWMHWVRQAPGQGLEWIGTIYPGNSDSSNAQKFQGRVTLTRDTSTSTAYMELSSLRSEDTAVYYCTRFYYEDWYFDVWGQGTTVTVSS
VL: DIQMTQSPSSLSASVGDRVTITCRASSSVSYLYWFQQKPGKAPKPLIYRTSNLASGVPSRFSGSGSGTDYTLTISSLQPEDFATYYCQQYHSYPPTFGGGTKVEIK
notes: also called full-length PHD48 antibody
- NFAT IC50 [6]: 66.5 nM
- Kd [7]: 1.87 nM
- koff [7]: 0.000413 s⁻¹
- kon [7]: 220000 M⁻¹ s⁻¹

B4: PHD49-05 (antibody, V domains shown)
VH: QVQLVQSGAEVKKPGSSVKVSCKASGYTFSSHWIQWVRQAPGQGLEWIGAIYPGDDDTIYTQKFQGRATITTDKSTSTAYMELSSLRSEDTAVYYCARNYDYQAWFAYWGQGTLVTVSS
VL: DIQMTQSPSSLSASVGDRVTITCRASSSVSYLYWYQQKPGKAPKPLIYLTSSLASGVPSRFSGSGSGTDYTLTISSLQPEDFATYYCQQWSSNPLTFGQGTKLEIK
- Kd [8]: 0.583 nM
- koff [8]: 0.000174 s⁻¹
- kon [8]: 299000 M⁻¹ s⁻¹
- NFAT IC50 [6]: 170 nM

B5: PHD48-08 (antibody, IgG4, V domains shown)
VH: QVQLVQSGAEVKKPGASVKVSCKASGYTFTTYWMHWVRQAPGQGLEWIGTIYPGNSDSSNAQKFQGRVTLTADTSTSTAYMELSSLRSEDTAVYYCTRFYYEDWYFDVWGQGTTVTVSS
VL: DIQMTQSPSSLSASVGDRVTITCRASSSVSYLYWFQQKPGKAPKPLIYRTSNLASGVPSRFSGSGSGTDYTLTISSLQPEDFATYYCQQYHSYPPTFGGGTKVEIK
- Kd [9]: 1.38 nM
- koff [9]: 0.000331 s⁻¹
- kon [9]: 240000 M⁻¹ s⁻¹
- NFAT IC50 [6]: 188 nM
- Kd [7]: 2.77 nM
- koff [7]: 0.00045 s⁻¹
- kon [7]: 163000 M⁻¹ s⁻¹

B6: PHD49 (antibody, V domains shown)
VH: QVQLVQSGAEVKKPGSSVKVSCKASGFTFSSYWIQWVRQAPGQGLEWIGAIYTGDGDTIYTQKFQGRATITTDESTSTAYMELSSLRSEDTAVYYCARNYHYQAWFDYWGQGTLVTVSS
VL: DIQMTQSPSSLSASVGDRVTITCRASSSVSYLYWYQQKPGKAPKPLIYLTSSLASGVPSRFSGSGSGTDYTLTISSLQPEDFATYYCQQWSSNPLTFGQGTKLEIK
- Kd [8]: 0.174 nM
- koff [8]: 5.21e-05 s⁻¹
- kon [8]: 300000 M⁻¹ s⁻¹
- NFAT IC50 [6]: 266 nM

B7: PHD49-11 (antibody, IgG4, V domains shown)
VH: QVQLVQSGAEVKKPGSSVKVSCKASGYTFSSYWMQWVRQAPGQGLEWIGAIYPGDDDTIYTQKFKGRATITADKSTSTAYMELSSLRSEDTAVYYCARNYDYQAWFAYWGQGTLVTVSS
VL: DIQMTQSPSSLSASVGDRVTITCRASSSVSYLYWYQQKPGKAPKPWIYLTSNLASGVPSRFSGSGSGTDYTLTISSLQPEDFATYYCQQWSSNPLTFGQGTKLEIK
- Kd [9]: 10.6 nM
- koff [9]: 0.00207 s⁻¹
- kon [9]: 196000 M⁻¹ s⁻¹
- NFAT IC50 [6]: 269 nM

B8: PHD49-21 (antibody, V domains shown)
VH: QVQLVQSGAEVKKPGSSVKVSCKASGFTFSSYWIQWVRQAPGQGLEWIGAIYTGDGDTIYTQKFQGRATITTDESTSTAYMELSSLRSEDTAVYYCARNYHYQAWFDYWGQGTLVTVSS
VL: DIQMTQSPSSLSASVGDRVTITCRASSSVSYLYWYQQKPGKAPKPLIYLTSDLASGVPSRFSGSGSGTDYTLTISSLQPEDFATYYCQQWSSNPLTFGQGTKLEIK
- Kd [8]: 0.259 nM
- koff [8]: 9.51e-05 s⁻¹
- kon [8]: 367000 M⁻¹ s⁻¹
- NFAT IC50 [6]: 124 nM

B9: muPHD48 (antibody, V domains shown)
VH: EVQLQQSGTVLARPGASVKMSCKASGYSFTTYWMHWVKQRPGQGLEWIGTIYPGNSDSSNNQKFKGKAKLTAVTSASTAYMELSSLTNEDSAVYYCTRFYYEDWYFDVWGAGTTVTVSS
VL: QIVLTQSPAIMSASPGEKVTISCSASSSVSYMYWFQQKPGSSPKPWIYRTSNLASGVPARFSGSGSGTSYSLTISSMEAEDAATYYCQQYHSYPPTFGGGTKLEIK
notes: Mouse hybridoma monoclonal antibody
- Top [1]: 239000
- EC50 [3]: 0.37 nM
- Top [3]: 2.16 OD450
- IC50 in NFAT antagonistic assay [4]: 0.411 nM
- EC50 [5]: 0.341 µg/mL
- Top; inhibition of NGF-induced TrkA activation in TrkA-NFAT-bla CHO-K1 reporter cells [10]: 0.862 Response Ratio
